The term Kd denotes the free concentration of one partner at which half of the binding sites on the other are occupied at equilibrium, for simple one-to-one binding.

This note sets out measurements from US20220062373A1 (published 2022).

T1: Endogenous murine CD206 on M2-polarized bone marrow-derived macrophages (mouse, UniProt Q61830 20-1456)
T1 construct: whole, on cells; also called endogenous CD206 in murine macrophages; CD206 of M2 BMDMs
T1 sequence (looked up): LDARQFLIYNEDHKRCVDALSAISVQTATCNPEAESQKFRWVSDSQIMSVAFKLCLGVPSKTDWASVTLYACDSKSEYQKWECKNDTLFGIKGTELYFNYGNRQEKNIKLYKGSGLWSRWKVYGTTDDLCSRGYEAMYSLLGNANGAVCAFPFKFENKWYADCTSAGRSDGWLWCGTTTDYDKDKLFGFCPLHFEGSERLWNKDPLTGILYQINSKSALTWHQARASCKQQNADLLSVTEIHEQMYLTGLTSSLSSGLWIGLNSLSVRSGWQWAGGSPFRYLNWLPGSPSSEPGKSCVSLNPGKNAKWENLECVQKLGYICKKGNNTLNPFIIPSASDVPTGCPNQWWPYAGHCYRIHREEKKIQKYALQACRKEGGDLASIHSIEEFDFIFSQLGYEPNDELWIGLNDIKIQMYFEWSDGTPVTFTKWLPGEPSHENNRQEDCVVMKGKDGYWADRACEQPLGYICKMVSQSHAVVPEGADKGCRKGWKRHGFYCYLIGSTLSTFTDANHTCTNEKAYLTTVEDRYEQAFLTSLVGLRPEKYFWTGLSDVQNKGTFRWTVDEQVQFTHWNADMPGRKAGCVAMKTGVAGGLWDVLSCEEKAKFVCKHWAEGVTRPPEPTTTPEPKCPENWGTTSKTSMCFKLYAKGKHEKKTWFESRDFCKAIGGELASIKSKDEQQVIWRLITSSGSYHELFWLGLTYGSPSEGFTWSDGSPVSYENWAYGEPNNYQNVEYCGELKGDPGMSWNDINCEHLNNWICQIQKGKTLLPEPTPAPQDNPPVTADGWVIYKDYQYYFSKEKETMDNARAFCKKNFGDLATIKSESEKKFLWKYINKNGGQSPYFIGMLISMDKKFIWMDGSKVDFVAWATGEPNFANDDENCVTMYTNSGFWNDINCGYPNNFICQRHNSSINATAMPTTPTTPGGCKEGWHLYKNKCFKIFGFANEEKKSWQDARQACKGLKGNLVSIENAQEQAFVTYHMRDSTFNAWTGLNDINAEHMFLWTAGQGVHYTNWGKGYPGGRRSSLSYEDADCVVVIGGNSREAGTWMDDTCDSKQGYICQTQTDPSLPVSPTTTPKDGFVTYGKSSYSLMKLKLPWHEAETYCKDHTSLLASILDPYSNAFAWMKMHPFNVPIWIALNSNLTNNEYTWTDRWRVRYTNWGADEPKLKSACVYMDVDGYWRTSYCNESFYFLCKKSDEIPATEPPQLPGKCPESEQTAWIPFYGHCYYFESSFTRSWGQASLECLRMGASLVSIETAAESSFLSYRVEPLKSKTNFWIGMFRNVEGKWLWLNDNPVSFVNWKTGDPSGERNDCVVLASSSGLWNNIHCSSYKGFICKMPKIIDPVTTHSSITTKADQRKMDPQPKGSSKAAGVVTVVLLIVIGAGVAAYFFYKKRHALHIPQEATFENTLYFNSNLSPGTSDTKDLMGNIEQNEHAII

B1: RP-426 (peptide)
peptide: KARKAAKRAF
notes: Designed as a control to test the impact of hydrophobicity on activity
B2: Recombinant human CD206 (MRC1/CD206) (receptor, UniProt P22897 19-1383, looked up)
chain: LLDTRQFLIYNEDHKRCVDAVSPSAVQTAACNQDAESQKFRWVSESQIMSVAFKLCLGVPSKTDWVAITLYACDSKSEFQKWECKNDTLLGIKGEDLFFNYGNRQEKNIMLYKGSGLWSRWKIYGTTDNLCSRGYEAMYTLLGNANGATCAFPFKFENKWYADCTSAGRSDGWLWCGTTTDYDTDKLFGYCPLKFEGSESLWNKDPLTSVSYQINSKSALTWHQARKSCQQQNAELLSITEIHEQTYLTGLTSSLTSGLWIGLNSLSFNSGWQWSDRSPFRYLNWLPGSPSAEPGKSCVSLNPGKNAKWENLECVQKLGYICKKGNTTLNSFVIPSESDVPTHCPSQWWPYAGHCYKIHRDEKKIQRDALTTCRKEGGDLTSIHTIEELDFIISQLGYEPNDELWIGLNDIKIQMYFEWSDGTPVTFTKWLRGEPSHENNRQEDCVVMKGKDGYWADRGCEWPLGYICKMKSRSQGPEIVEVEKGCRKGWKKHHFYCYMIGHTLSTFAEANQTCNNENAYLTTIEDRYEQAFLTSFVGLRPEKYFWTGLSDIQTKGTFQWTIEEEVRFTHWNSDMPGRKPGCVAMRTGIAGGLWDVLKCDEKAKFVCKHWAEGVTHPPKPTTTPEPKCPEDWGASSRTSLCFKLYAKGKHEKKTWFESRDFCRALGGDLASINNKEEQQTIWRLITASGSYHKLFWLGLTYGSPSEGFTWSDGSPVSYENWAYGEPNNYQNVEYCGELKGDPTMSWNDINCEHLNNWICQIQKGQTPKPEPTPAPQDNPPVTEDGWVIYKDYQYYFSKEKETMDNARAFCKRNFGDLVSIQSESEKKFLWKYVNRNDAQSAYFIGLLISLDKKFAWMDGSKVDYVSWATGEPNFANEDENCVTMYSNSGFWNDINCGYPNAFICQRHNSSINATTVMPTMPSVPSGCKEGWNFYSNKCFKIFGFMEEERKNWQEARKACIGFGGNLVSIQNEKEQAFLTYHMKDSTFSAWTGLNDVNSEHTFLWTDGRGVHYTNWGKGYPGGRRSSLSYEDADCVVIIGGASNEAGKWMDDTCDSKRGYICQTRSDPSLTNPPATIQTDGFVKYGKSSYSLMRQKFQWHEAETYCKLHNSLIASILDPYSNAFAWLQMETSNERVWIALNSNLTDNQYTWTDKWRVRYTNWAADEPKLKSACVYLDLDGYWKTAHCNESFYFLCKRSDEIPATEPPQLPGRCPESDHTAWIPFHGHCYYIESSYTRNWGQASLECLRMGSSLVSIESAAESSFLSYRVEPLKSKTNFWIGLFRNVEGTWLWINNSPVSFVNWNTGDPSGERNDCVALHASSGFWSNIHCSSYKGYICKRPKIIDAKPTHELLTTKADTRKMDPSK
notes: Bought protein; also called recombinant MRC1/CD206; rMRC1/CD206

The target of series [1] is B2. Description: microscale thermophoresis, label-free, recombinant CD206. As for the experimental part: Specifically, two-fold serial dilutions of the peptides were prepared in PBS and incubated with the same volume of 250 nM recombinant human and mouse CD206 in PBS. After a 5 min incubation at room temperature (RT), measurements were carried out in standard capillaries using a Monolith NT. Labelfree instrument (Nanotemper Technologies) with 40% LED excitation power, 40% IR-laser power, and laser on and off times of 30 s and 5 s, respectively. KD values were calculated by fitting the T-Jump signal of the thermograph using MOAffinity analysis software (Nanotemper Technologies).
(In general: Microscale thermophoresis detects binding through changes in fluorescence in a small temperature gradient.)

The target in series [2] is T1, Endogenous murine CD206 on M2-polarized …. Description: cellular thermal shift assay (CETSA) on M2-polarized macrophages.
Description: The target engagement of the peptides in macrophages was assessed using the cellular thermal shift assay (CETSA) following the Jafari et al. protocol with minor modifications. […] After treatment, cells were collected by centrifugation for 5 min at 300×g and re-suspended in 600 μL DMEM. […] Samples were centrifuged at 20,000×g for 20 min at 4° C., and the supernatant was subsequently analyzed by western blot using 12-230 kDa Peggy Sue separation module (ProteinSimple, Cat #, SM-S001) and Peggy Sue instrument (Protein Simple) with following settings: electrophoresis 250 volts for 45 min; blocking, 23 min; primary antibody, 30 min; secondary antibody, 30 min. Quantitative analysis of CD206 level was performed using anti-CD206 antibody at 1:70 concentration multiplexed with anti-SOD1 antibody at 1:300 dilution, as internal control for normalization, and Compass software (ProteinSimple, San Jose, Calif.).
Series [3] deals with the molecule itself. Description: small-angle X-ray scattering (SAXS), self-association.
Description: SAXS data was collected at the 12ID-B beamline of the Advanced Photon Source (APS), Argonne National Laboratory, Lemont, Ill. […] Concentration series measurements for CD206 in buffer containing 50 mM Hepes, 100 mM NaCl, 1 mM DTT were carried out to extrapolate the data to infinite dilution for removing the scattering contribution due to interparticle interactions (concentration effect). Thirty 2D-image frames were recorded for sample solution and their matching buffer using a flow cell, with the exposure time of 0.75-1 sec to minimize radiation damage and to yield optimal signal-to-noise ratio. The 2D images were reduced to 1D scattering profiles and averaged using the Matlab software package at the beamlines.
The buffer background subtraction and intensity extrapolation to infinite dilution were carried out using MatLab script developed by 12-ID-B beamline. The radius of gyration (Rg) was generated from Guinier plot in the range of qRg<1.3. For comparison, Rg was also calculated in real and reciprocal spaces using program GNOM (https://www.embl-hamburg.de/biosaxs/manuals/gnom.html). The pair-distance distribution function P(r) and maximum dimension (Dmax) were also calculated using GNOM. […] Based on the silico models of CD206 monomer derived from iTASSER, the fit of dimer of CD206 to SAXS experimental data were calculated using the program CORAL.

Consider B1, for which, in series [1], the Kd was found to be 85 µM. In series [2], the binding result is on record as “no binding (tested: 100 µM)”. As for B2, in series [3], the binding result is listed as “binds”.
